# In publication PMC8567202, “Phosphoinositide-binding activity of Smad2 is essential for its function in TGF-β signaling” (The Journal of Biological Chemistry, 2021):
# Read-outs that look alike come from different tables or passages of the source.
# Legend:
# [1] = system: TβRI GS region peptide (F-Ahx-YDMTTpSGpSGpSGLPLL); test: Fluorescence anisotropy binding to TβRI GS peptide
# Text: (§1) However, this tentative assignment has been confirmed neither by a high-resolution structure of the Smad2-TβRI complex nor by a quantitative and systematic binding study, leaving uncertainty about the exact nature of the Smad2-TβRI-binding interface. Since the L3 loop is a part of the newly identified PI(4,5)P2-binding site, we checked if these PI(4,5)P2-binding residues are also involved in the Smad2-TβRI interaction using two fluorescein-labeled synthetic peptides derived from the GS region (i.e., GS peptide: fluorescein-aminohexanoyl (F-Ahx)-YDMTTpSGpSGpSGLPLL) and the L45 loop (i.e., L45 peptide: F-Ahx-ADNKDNGT), respectively. In particular, the GS peptide represents the GS motif triply phosphorylated by TβRII. We then measured binding to Smad2 WT and mutants to these peptides by fluorescence anisotropy according to our established protocol ([21]). […] We thus primarily used the GS peptide to assess the effects of mutations on the Smad2-TβRI interaction. […] They also yielded distinct structural variants for further functional studies. Specifically, W422A and Y426A could serve as specific PI(4,5)P2 binding-compromised mutants and K420A as a predominantly TβRI binding-compromised mutant. R427A/R428A could also serve as a PI(4,5)P2 and TβRI binding-compromised mutant, whereas E425K as a PI(4,5)P2 and TβRI binding-enhanced mutant.
# (§2) Figure 3 Affinity of Smad2 WT and mutants for TβRI-derived peptides determined by fluorescence anisotropy.A, binding of Smad2 WT (black), W422A (red), Y420A (cyan), R427A/R428A (green), K420A (blue), and E425K (orange) to the GS peptide (F-Ahx-YDMTTpSGpSGpSGLPLL). […] B, binding of Smad2 WT (black), W422A (red), Y420A (cyan), R427A/R428A (green), K420A (blue), and E425K (orange) to the L45 loop peptide (F-Ahx-DNKDNGT). C, effects of 50 μM POPC/POPS/PI(4,5)P2 (77:20:3) LUVs on binding of Smad2 to the GS peptide. The presence of vesicles (orange) raises the Kd value from 20 ± 6 to 60 ± 7 nM. The peptide concentration was fixed at 2.5 nM, and the Smad2 concentration was varied from 0 to 150 μM. The experimentally observed anisotropy (A) values were normalized (Anorm) using the equation: Anorm = (A − Amin)/(Amax − Amin) where Amax and Amin are maximal and minimal A values, respectively, for each measurement. The plots of Anormversus [Smad2] were analyzed by the nonlinear least-squares analysis using the equation: Anorm = 1/(1 + Kd/[Smad2]).
# (§3) The fluorescein-6-aminohexanoyl (F-Ahx)-labeled TβRI GS region peptide (F-Ahx-YDMTTpSGpSGpSGLPLL) was dissolved in dimethyl sulfoxide to yield 1 mg/ml stock solution, F-Ahx-labeled TβRI L45 loop region peptide (F-Ahx-ADNKDNGT) was dissolved in a 3:1 mixture of water and acetonitrile to yield 2.5 mg/ml stock solution. Both peptide solutions were diluted to 1 to 10 μM with 20 mM Tris buffer, pH 7.9, containing 160 mM NaCl for binding studies. In total, 300 μl of the Smad2 (WT or mutant) solution (0–250 μM) was added to a series of 1.5 ml microcentrifuge containing the peptide solution (2.5 μM). After 10-min incubation in the dark, the mixture was transferred to a quartz cuvette with 2-mm path length and fluorescence anisotropy (r) was measured with excitation and emission wavelengths set at 485 and 535 nm, respectively, using Horiba Flurolog-3 spectrofluorometer. Since Po >> Pepo under our conditions, the Kd for the Smad2-peptide binding was determined by the nonlinear least-squares analysis of the binding isotherm using the Equation 1:(1) Pepbound/Pep0=Δr/Δrmax=1/1+kd/P0 where Pepbound, Pep0, and P0 indicate the concentration of bound peptide, total peptide, and total Smad2, respectively, and Δr and Δrmax are the anisotropy change for each P0 and the maximal Δr, respectively.
# [2] = system: TβRI L45 loop region peptide (F-Ahx-ADNKDNGT); test: Fluorescence anisotropy binding to TβRI L45 peptide; details: for Kd: 20 mM Tris, pH 7.9, 160 mM NaCl, 10-min incubation, average ±S.D., n = 3
# Text: as §1, §2, §3
# [3] = system: HeLa cells; test: Nuclear translocation of EGFP-Smad2; assay type: cell-based
# Description: Two separate gels were used to accommodate all mutants. An empty vector transfection (vehicle) was used for a negative control for each gel. Glyceraldehyde 3-phosphate dehydrogenase (GAPDH) was used as a gel loading control. Data in A and B are quantified in Fig. S3A. C, TGF-β stimulated (10 ng/ml for 1 h) nuclear translocation of mouse EGFP-WT, -K420A, -W422A, -E425K, -Y426A, and -R427A/R428A transfected into HeLa cells whose endogenous Smad2 was suppressed by siRNA. For Smad2-WT, the effect of PI(4,5)P2 depletion was measured. Arrows indicate nuclear accumulation of EGFP-WT and EGFP-E425K. Scale bars indicate 10 μm. D, quantification of (C). (Inuc/Icyto) was calculated from total nuclear and cytosolic fluorescence intensity values. Blank and black bars indicate values before and after TGF-β stimulation. Error bars indicate S.D. values from >3 measurements (n = 10). E, Smad2 transcriptional activity measured by the luciferase assay. Blank and black bars indicate values before and after TGF-β stimulation. Error bars indicate S.D. values from >3 measurements (n = 10).
# The ratio of nuclear to cytoplasmic protein was calculated from the fluorescence intensity of nucleus (Inuc) and the cytoplasm (Fcyto) in cross-section images of cells using the line profile function of Image-Pro Plus software (Media Cybernetics). Briefly, at least five different lines were drawn across the cross-sectional image of each cell and the average Inuc and ICyto values were calculated along the lines. Typically, more than ten cell images were analyzed for each data set to determine the average and SD values.
# [4] = fluorescence anisotropy, 20 mM Tris, pH 7.9, 160 mM NaCl, 10-min incubation, average ±S.D., n = 3, read-out: Kd for peptide binding, GS peptide
Molecule,GS peptide affinity relative to WT ([1]; fluorescence anisotropy),"Kd [1, 4]",L45 peptide affinity relative to WT [2],Kd [2],"nuclear transport after TGF-β stimulation ([3]; HeLa cells with endogenous Smad2 suppressed, 10 ng/ml TGF-β for 1 h)","effect of PI(4,5)P2 LUVs on binding to the GS peptide ([1]; 50 μM POPC/POPS/PI(4,5)P2 (77:20:3) LUVs)","binding to GS peptide relative to L45 peptide ([1]; fluorescence anisotropy, Kd comparison)","Kd ([1]; with 50 μM POPC/POPS/PI(4,5)P2 (77:20:3) LUVs, fluorescence anisotropy, Smad2 0 to 150 μM, read-out: Kd, GS peptide, in the presence of vesicles)","Kd ([1]; without LUVs, fluorescence anisotropy, Smad2 0 to 150 μM, read-out: Kd, GS peptide, without vesicles)","nuclear transport after PI(4,5)P2 depletion ([3]; HeLa cells, PI(4,5)P2 depletion, TGF-β 10 ng/ml for 1 h)"
"Smad2-E425K: charge-reversal mutant of full-length Smad2; PI(4,5)P2 and TβRI binding-enhanced (protein, left off: His6, N-terminal, state not stated) MSSILPFTPPVVKRLLGWKKSAGGSGGAGGGEQNGQEEKWCEKAVKSLVKKLKKTGRLDELEKAITTQNCNTKCVTIPSTCSEIWGLSTANTVDQWDTTGLYSFSEQTRSLDGRLQVSHRKGLPHVIYCRLWRWPDLHSHHELKAIENCEYAFNLKKDEVCVNPYHYQRVETPVLPPVLVPRHTEILTELPPLDDYTHSIPENTNFPAGIEPQSNYIPETPPPGYISEDGETSDQQLNQSMDTGSPAELSPTTLSPVNHSLDLQPVTYSEPAFWCSIAYYELNQRVGETFHASQPSLTVDGFTDPSNSERFCLGLLSNVNRNATVEMTRRHIGRGVRLYYIGGEVFAECLSDSAIFVQSPNCNQRYGWHPATVCKIPPGCNLKIFNNQEFAALLAQSVNQGFEAVYQLTRMCTIRMSFVKGWGAKYRRQTVTSTPCWIELHLNGPLQWLDKVLTQMGSPSVRCSSMS",twofold higher affinity,8 ± 0.8 µM,slightly higher affinity,55 ± 3 µM,excessively transported to the nucleus,,,,,
"Smad2 WT: bacterially expressed full-length Smad2 wild-type (protein, left off: His6, N-terminal, state not stated, bacterially expressed full-length Smad2 wild-type) MSSILPFTPPVVKRLLGWKKSAGGSGGAGGGEQNGQEEKWCEKAVKSLVKKLKKTGRLDELEKAITTQNCNTKCVTIPSTCSEIWGLSTANTVDQWDTTGLYSFSEQTRSLDGRLQVSHRKGLPHVIYCRLWRWPDLHSHHELKAIENCEYAFNLKKDEVCVNPYHYQRVETPVLPPVLVPRHTEILTELPPLDDYTHSIPENTNFPAGIEPQSNYIPETPPPGYISEDGETSDQQLNQSMDTGSPAELSPTTLSPVNHSLDLQPVTYSEPAFWCSIAYYELNQRVGETFHASQPSLTVDGFTDPSNSERFCLGLLSNVNRNATVEMTRRHIGRGVRLYYIGGEVFAECLSDSAIFVQSPNCNQRYGWHPATVCKIPPGCNLKIFNNQEFAALLAQSVNQGFEAVYQLTRMCTIRMSFVKGWGAEYRRQTVTSTPCWIELHLNGPLQWLDKVLTQMGSPSVRCSSMS",,20 ± 6 µM,,66 ± 4 µM,,significantly interfered with binding of Smad2 to the GS peptide,3.3 times,0.06 ± 0.007 µM,0.02 ± 0.006 µM,abrogated the nuclear transport of Smad2 WT
